Source: article PMC9463131, “SLITRK1-mediated noradrenergic projection suppression in the neonatal prefrontal cortex” (Communications Biology, 2022)

Key:
[1] = target: T1, L1CAM ECD-His6 (777-NC-100, R&D Systems) (UniProt P32004 20-1120); test: quartz crystal microbalance; AffinixQ, 27 MHz; about 200 femtomoles SLITRK1 ECD-Fc (WT, S330A or A444S) immobilised through anti-human IgG Fc on the gold resonator; ECD-His6 proteins added at several concentrations; 50 mM Tris-HCl pH 7.6, 15 mM NaCl, 140 mM KCl, 0.5 mM MgCl2, 2 mM CaCl2; 25 ± 1 °C; KD = koff/kon; conditions: both partners purified
T1 construct: L1CAM extracellular domain; source: bought: R&D Systems (777-NC-100)
T1 sequence (P32004 20-1120): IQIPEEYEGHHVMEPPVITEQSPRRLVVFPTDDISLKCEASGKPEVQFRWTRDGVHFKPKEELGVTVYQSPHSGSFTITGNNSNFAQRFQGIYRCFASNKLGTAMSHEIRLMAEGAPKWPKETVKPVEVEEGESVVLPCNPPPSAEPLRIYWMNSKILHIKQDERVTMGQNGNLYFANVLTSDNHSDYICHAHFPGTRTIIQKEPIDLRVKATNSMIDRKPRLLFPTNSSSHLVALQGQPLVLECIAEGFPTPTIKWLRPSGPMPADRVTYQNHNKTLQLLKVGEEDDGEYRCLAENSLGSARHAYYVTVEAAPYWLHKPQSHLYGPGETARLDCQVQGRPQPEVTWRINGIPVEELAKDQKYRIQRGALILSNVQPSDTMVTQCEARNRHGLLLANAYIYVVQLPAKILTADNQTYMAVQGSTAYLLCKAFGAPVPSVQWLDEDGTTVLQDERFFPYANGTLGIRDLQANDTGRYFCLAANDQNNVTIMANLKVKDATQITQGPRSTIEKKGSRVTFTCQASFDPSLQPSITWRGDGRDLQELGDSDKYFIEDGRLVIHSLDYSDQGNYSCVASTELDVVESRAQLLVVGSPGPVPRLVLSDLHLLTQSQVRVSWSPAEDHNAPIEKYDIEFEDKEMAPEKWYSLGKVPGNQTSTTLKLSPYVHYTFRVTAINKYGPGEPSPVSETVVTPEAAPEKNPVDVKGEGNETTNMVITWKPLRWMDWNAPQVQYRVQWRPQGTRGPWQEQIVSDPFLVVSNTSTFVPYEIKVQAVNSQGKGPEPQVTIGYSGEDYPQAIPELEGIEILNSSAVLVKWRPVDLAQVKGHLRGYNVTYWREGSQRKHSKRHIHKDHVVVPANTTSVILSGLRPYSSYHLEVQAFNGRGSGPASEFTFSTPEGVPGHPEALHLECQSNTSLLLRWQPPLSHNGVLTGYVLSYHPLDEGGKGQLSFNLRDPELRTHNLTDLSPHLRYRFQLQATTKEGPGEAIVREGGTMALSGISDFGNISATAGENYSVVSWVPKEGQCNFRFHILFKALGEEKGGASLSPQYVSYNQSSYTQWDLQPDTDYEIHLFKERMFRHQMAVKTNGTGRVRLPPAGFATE

[2] = target: T2, human PTPRD ECD-His6 (ACROBiosystems) (human, UniProt P23468 21-1265); test: as above; conditions: both partners purified
T2 construct: human receptor-type protein tyrosine phosphatase delta (PTPRD), extracellular domain; No catalogue number printed; also called PTPRδ; source: bought: ACROBiosystems
T2 sequence (looked up): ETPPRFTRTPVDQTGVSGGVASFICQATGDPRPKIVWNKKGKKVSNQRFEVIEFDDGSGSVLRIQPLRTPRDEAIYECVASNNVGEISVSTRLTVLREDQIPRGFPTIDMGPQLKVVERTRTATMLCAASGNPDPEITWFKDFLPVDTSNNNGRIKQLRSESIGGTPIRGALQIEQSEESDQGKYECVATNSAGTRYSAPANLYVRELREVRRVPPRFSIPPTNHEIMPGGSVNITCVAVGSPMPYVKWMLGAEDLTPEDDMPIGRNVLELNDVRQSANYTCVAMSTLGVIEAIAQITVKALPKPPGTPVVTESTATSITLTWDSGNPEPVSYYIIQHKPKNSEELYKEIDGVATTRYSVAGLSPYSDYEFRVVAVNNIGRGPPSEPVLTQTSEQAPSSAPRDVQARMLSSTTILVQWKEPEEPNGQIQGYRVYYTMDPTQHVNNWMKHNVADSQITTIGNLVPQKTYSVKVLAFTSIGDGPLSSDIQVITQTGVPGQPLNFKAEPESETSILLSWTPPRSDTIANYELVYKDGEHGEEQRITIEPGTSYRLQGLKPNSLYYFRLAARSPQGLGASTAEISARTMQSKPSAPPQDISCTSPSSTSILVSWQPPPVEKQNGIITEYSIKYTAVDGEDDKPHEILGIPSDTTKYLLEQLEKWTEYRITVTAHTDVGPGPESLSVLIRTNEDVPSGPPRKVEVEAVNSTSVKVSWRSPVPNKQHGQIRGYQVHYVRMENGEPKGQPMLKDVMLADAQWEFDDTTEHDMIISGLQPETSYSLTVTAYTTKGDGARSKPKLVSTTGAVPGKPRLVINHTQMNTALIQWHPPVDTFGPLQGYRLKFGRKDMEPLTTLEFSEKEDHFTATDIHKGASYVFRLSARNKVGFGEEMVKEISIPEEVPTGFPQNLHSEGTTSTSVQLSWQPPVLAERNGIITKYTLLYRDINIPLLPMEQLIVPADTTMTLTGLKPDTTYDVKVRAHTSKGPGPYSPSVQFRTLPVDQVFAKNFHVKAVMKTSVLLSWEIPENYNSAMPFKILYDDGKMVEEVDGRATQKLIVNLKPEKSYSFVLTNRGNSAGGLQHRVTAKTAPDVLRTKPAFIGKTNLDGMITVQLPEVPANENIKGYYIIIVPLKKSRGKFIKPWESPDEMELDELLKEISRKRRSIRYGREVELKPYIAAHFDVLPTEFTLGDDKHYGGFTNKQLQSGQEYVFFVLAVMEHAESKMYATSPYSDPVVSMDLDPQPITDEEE

B1: SLITRK1 ECD-immunoglobulin Fc domain-fusion protein (SLITRK1-WT-Fc) (Fc fusion, human, UniProt Q96PX8 18-616, looked up)
chain: NVTGDVCKEKICSCNEIEGDLHVDCEKKGFTSLQRFTAPTSQFYHLFLHGNSLTRLFPNEFANFYNAVSLHMENNGLHEIVPGAFLGLQLVKRLHINNNKIKSFRKQTFLGLDDLEYLQADFNLLRDIDPGAFQDLNKLEVLILNDNLISTLPANVFQYVPITHLDLRGNRLKTLPYEEVLEQIPGIAEILLEDNPWDCTCDLLSLKEWLENIPKNALIGRVVCEAPTRLQGKDLNETTEQDLCPLKNRVDSSLPAPPAQEETFAPGPLPTPFKTNGQEDHATPGSAPNGGTKIPGNWQIKIRPTAAIATGSSRNKPLANSLPCPGGCSCDHIPGSGLKMNCNNRNVSSLADLKPKLSNVQELFLRDNKIHSIRKSHFVDYKNLILLDLGNNNIATVENNTFKNLLDLRWLYMDSNYLDTLSREKFAGLQNLEYLNVEYNAIQLILPGTFNAMPKLRILILNNNLLRSLPVDVFAGVSLSKLSLHNNYFMYLPVAGVLDQLTSIIQIDLHGNPWECSCTIVPFKQWAERLGSEVLMSDLKCETPVNFFRKDFMLLSNDEICPQLYARISPTLTSHSKNSTGLAETGTHSNSYLDTSRVS
notes: signal peptide in the construct; human SLITRK1 extracellular domain, amino acid number 1-616 in NP_443142; also called SLITRK1 ECD-Fc; SLITRK1 ECD-Fc fusion protein
Kd [1]: 5.47 nM
Kd [2]: 152 nM
